From patent US20210188986A1

Legend:
[1] = molecular target: human OX40L (recombinant, soluble) (human) (UniProt P23510); experiment: cell-based or functional assay
[2] = molecular target: human TNFα (recombinant, soluble) (human) (UniProt P01375); experiment: cell-based or functional assay
Chain of UniProt P01375 (P01375 77-233 limits assumed): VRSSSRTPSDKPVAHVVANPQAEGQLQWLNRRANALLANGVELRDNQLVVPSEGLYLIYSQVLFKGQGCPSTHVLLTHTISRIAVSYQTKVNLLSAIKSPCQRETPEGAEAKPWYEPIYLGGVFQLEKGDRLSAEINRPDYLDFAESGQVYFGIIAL

Chain of UniProt P23510 (P23510 51-183 limits assumed): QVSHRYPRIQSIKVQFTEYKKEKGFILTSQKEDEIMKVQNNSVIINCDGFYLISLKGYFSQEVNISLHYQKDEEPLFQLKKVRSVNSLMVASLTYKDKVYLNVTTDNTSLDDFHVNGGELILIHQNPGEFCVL

| % inhibition, Jurkat OX40/TNF-NFκB reporter assay, combined hTNFα+OX40L stimulus [1] [%] | IC50 (pM), Jurkat OX40/TNF-NFκB reporter assay, combined hTNFα+OX40L stimulus [1] [pM] | % inhibition, Jurkat OX40/TNF-NFκB reporter assay, combined hTNFα+OX40L stimulus [2] [%] | IC50 (pM), Jurkat OX40/TNF-NFκB reporter assay, combined hTNFα+OX40L stimulus [2] [pM] | Substance |
| --- | --- | --- | --- | --- |
| 68 | 3060 | – | – | monospecific anti-OX40L VHH ALX-0632 |
| – | – | 66 | 387 | monospecific anti-TNFα VHH ATN-103 |
